In US12611443B2, “Methods and compositions related to therapeutic peptides for cancer therapy” (THE UNIVERSITY OF CHICAGO, priority 2018, dated 2026):

Tests used:
[1] = molecular target: T1, ELANE (Homo sapiens, UniProt P08246); experiment: ELANE activity assay with ECP (chromogenic substrate); format: biochemical; settings: type II allosteric activator
T1 sequence (P08246 30-267): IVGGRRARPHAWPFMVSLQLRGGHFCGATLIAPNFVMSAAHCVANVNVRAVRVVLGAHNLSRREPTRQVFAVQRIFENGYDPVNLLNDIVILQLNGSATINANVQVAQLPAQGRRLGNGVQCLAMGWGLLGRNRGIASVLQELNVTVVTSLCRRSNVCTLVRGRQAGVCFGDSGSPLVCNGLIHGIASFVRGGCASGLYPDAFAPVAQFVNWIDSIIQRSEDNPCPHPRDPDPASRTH
Experimental: ELANE activity assays. Catalytic activity was measured using the chromogenic substrate N-Methoxysuccinyl-Ala-Ala-Pro-Val p-nitroanilide (Sigma, 100 μg/mL) according to manufacturer's protocol. Absorbance was measured at 405 nm using an accuSkan GO UV/Vis microplate spectrophotometer (ThermoFisher Scientific). For inactivation, ELANE was incubated with PMSF (1 mM, Sigma) or A1AT (42 nM, Athens Research & Technology) for 2 h. Residual PMSF was eliminated with a PD-10 desalting column (GE Healthcare Life). To monitor the effect of ECP on ELANE activity, ELANE (10 nM) was incubated with various doses of ECP (0-180 nM) at various substrate concentrations (0-1.7 mM).
Statistics. With the exception of proteomics studies, statistical significance was determined with the Student's two-tailed, unpaired t-test. Linear regression, Michaelis-Menten, and hyperbolic curve fittings were performed using Prism v.7 software.

[2] = tested on: MDA-MB-231 cells; experiment: Cell viability of MDA-MB-231 cells treated with purified ELANE or ECP; format: cell-based, human
Experimental: (§1) In vitro cell viability assays. […] Luminescence was measured using a Victor X3 luminometer (PerkinElmer).

[3] = tested on: Human monocyte-derived macrophages (HMDMs); experiment: Cell viability of HMDMs treated with purified ELANE or ECP; format: cell-based
Experimental: Primary human blood-derived cells.
as §1

B1: ECP: eosinophil cationic protein, a pore-forming protein (protein)
chain: RPPQFTRAQWFAIQHISLNPPRCTIAMRAINNYRWRCKNQNTFLRTTFANVVNVCGNQSIRCPHNRTLNNCHRSRFRVPLLHCDLINPGAQNISNCTYADRPGRRFYVVACDNRDPRDSPRYPVVPVHLDTTI
- increase of ELANE catalytic turnover (kcat) [1]: ~12 fold
- killing at concentration present in PMN media, alone ([2]; ECP 0.05 μg/mL): could not kill these cells alone
- effect on killing capability of ELANE ([2]; ELANE 0.25 μg/mL and ECP 0.05 μg/mL): significantly enhanced the selective killing capability of ELANE
- cell viability, purified protein ([2]; MDA-MB-231): killed MDA-MB-231 cells only at doses that were also toxic to HMDMs
- cell viability, purified protein [3]: toxic to HMDMs
